This series deals with T1, His-ArCRZ1 (Ascochyta rabiei, UniProt A0A163H1V7 1-755).
T1 sequence: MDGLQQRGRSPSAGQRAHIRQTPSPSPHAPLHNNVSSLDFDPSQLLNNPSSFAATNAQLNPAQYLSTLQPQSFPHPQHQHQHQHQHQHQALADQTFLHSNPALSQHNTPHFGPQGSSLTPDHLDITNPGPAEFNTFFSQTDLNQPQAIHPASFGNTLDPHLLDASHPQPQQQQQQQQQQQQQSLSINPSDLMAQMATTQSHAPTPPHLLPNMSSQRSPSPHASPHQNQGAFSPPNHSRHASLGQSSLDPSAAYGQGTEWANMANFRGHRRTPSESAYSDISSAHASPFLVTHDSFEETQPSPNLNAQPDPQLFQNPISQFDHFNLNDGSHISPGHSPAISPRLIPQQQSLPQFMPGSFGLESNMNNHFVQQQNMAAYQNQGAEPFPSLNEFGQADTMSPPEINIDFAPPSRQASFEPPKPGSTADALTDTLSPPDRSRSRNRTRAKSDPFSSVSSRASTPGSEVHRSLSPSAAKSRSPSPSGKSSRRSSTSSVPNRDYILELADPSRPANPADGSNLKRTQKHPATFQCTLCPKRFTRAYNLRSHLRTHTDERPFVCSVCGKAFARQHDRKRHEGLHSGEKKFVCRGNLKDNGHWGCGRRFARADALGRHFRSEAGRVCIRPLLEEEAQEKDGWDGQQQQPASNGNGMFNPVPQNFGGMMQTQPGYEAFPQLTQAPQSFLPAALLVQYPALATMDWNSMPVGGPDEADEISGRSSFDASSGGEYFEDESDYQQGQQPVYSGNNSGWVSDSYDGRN
Briefly: EMSA; 15 mM HEPES pH 7.6, 0.2 mM MgCl2, 35 mM KCl, 1 mM DTT, 1% glycerol, 1 mg poly(dI-dC) (so in the source), 10 ng labelled DNA, 30 uL, 25 min, room temperature; 6% native PAGE. As to conditions: protein: recombinant; tags: His (pET28a(+)); label: 32P end label; blunt. A general note: Mobility shift assays separate free from complexed probe on a gel.

B1: WT CDRE (GRF/GRR), 58 bp (dsDNA)
DNA 1: CTCCAGCCATCGAGCCCCACCACCAATTGGGCCGCCAGTGAGAGCCCCAAGGCCGTCC
DNA 2: GGACGGCCTTGGGGCTCTCACTGGCGGCCCAATTGGTGGTGGGGCTCGATGGCTGGAG
In the case of B1, the binding result is “binds”.

For the origin of these results see article PMC8158962, “Modulation of fungal virulence through CRZ1 regulated F-BAR-dependent actin remodeling and endocytosis in chickpea infecting phytopathogen Ascochyta rabiei”.
